Ends that are not written are not given here. Peptide text beside a SMILES is read from it. * marks the point of attachment. Biotin = O=C1N[C@H]2[C@H](CS[C@H]2CCCCC(=O)*)N1
Legend:
Assay in all cases: G' assay (10 uM PL peptide), results of TABLE 7 and TABLE 12
Format in all cases: binding
[1] = target: T1, PDZ protein (GST-PDZ fusion) (Homo sapiens, UniProt O60307); conditions: PDZ KIAA0561, PDZ Domain 1
T1 construct: made in house; host or cells: E. coli (DH5alpha, BL21 or JM109)
Summary of the method: (§1)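 Biotinylated PL peptides at 10 uM (vs 20 uM in G^0 assay) bound to GST-PDZ fusions; PDZ protein at 5 ug/ml unless another concentration listed. Bound peptide read as A450 nm, classified 0–5 (0 = A450 0; 5 = A450 >4 repeated).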

[2] = target: T2, PDZ protein (GST-PDZ fusion) (Homo sapiens, UniProt Q9BXL6); conditions: PDZ CARD14, PDZ Domain 1
T2 construct: made in house; host or cells: E. coli (DH5alpha, BL21 or JM109)
T2 sequence (Q9BXL6 1-1004): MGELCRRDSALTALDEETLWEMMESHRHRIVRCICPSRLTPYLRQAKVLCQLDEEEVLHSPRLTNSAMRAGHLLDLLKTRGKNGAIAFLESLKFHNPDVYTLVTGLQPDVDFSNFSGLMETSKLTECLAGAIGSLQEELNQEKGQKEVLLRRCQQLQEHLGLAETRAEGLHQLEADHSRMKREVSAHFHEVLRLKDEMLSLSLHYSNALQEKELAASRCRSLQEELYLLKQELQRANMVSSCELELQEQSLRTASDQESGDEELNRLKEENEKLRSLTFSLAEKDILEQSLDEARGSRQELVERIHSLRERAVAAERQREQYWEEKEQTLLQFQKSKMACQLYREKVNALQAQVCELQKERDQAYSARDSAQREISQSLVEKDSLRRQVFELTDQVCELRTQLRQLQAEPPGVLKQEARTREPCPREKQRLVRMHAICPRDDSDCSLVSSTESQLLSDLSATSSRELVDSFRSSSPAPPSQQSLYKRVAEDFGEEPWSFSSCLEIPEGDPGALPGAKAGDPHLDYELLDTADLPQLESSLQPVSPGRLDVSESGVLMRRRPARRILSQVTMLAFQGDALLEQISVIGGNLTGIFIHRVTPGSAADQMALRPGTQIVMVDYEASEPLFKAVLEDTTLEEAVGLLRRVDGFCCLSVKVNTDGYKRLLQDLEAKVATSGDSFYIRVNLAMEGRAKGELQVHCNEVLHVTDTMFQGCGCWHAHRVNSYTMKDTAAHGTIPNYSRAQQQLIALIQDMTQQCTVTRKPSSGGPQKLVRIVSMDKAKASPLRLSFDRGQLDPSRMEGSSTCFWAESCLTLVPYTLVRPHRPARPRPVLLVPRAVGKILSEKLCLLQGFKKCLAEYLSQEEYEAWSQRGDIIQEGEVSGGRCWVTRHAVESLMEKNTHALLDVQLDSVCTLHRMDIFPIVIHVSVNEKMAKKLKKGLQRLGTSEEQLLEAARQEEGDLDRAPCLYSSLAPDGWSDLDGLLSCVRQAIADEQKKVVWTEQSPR
Summary of the method: as §1

[3] = target: T3, PDZ protein (GST-PDZ fusion) (Homo sapiens, UniProt Q9ULD6); conditions: PDZ KIAA1284, PDZ Domain 1
T3 construct: made in house; host or cells: E. coli (DH5alpha, BL21 or JM109)
T3 sequence (Q9ULD6 1-942): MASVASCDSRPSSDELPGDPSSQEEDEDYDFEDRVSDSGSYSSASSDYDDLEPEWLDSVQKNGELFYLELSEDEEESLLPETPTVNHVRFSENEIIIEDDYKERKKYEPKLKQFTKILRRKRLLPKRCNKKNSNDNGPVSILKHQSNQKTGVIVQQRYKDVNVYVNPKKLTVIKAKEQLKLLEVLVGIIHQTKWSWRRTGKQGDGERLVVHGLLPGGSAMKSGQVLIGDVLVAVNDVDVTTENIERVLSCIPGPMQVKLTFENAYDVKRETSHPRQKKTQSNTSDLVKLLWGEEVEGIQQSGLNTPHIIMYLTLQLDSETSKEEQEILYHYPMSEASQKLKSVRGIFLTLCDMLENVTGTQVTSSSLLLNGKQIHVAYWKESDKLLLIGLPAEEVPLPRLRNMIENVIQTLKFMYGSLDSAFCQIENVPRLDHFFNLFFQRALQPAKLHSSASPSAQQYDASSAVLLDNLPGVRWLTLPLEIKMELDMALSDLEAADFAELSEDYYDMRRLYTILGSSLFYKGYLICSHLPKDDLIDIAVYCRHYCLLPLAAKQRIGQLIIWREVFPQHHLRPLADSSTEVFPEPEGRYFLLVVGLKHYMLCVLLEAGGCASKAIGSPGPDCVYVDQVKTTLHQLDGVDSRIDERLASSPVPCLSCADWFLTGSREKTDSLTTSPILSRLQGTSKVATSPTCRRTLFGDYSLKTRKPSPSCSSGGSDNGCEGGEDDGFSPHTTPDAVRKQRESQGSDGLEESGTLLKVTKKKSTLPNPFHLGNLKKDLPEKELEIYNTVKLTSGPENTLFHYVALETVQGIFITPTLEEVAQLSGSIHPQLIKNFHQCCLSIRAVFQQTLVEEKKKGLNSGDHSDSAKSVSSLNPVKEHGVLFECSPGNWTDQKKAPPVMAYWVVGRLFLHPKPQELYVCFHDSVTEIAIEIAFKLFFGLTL
Summary of the method: as §1

T1 sequence (O60307 whole entry, the tested form may be a part): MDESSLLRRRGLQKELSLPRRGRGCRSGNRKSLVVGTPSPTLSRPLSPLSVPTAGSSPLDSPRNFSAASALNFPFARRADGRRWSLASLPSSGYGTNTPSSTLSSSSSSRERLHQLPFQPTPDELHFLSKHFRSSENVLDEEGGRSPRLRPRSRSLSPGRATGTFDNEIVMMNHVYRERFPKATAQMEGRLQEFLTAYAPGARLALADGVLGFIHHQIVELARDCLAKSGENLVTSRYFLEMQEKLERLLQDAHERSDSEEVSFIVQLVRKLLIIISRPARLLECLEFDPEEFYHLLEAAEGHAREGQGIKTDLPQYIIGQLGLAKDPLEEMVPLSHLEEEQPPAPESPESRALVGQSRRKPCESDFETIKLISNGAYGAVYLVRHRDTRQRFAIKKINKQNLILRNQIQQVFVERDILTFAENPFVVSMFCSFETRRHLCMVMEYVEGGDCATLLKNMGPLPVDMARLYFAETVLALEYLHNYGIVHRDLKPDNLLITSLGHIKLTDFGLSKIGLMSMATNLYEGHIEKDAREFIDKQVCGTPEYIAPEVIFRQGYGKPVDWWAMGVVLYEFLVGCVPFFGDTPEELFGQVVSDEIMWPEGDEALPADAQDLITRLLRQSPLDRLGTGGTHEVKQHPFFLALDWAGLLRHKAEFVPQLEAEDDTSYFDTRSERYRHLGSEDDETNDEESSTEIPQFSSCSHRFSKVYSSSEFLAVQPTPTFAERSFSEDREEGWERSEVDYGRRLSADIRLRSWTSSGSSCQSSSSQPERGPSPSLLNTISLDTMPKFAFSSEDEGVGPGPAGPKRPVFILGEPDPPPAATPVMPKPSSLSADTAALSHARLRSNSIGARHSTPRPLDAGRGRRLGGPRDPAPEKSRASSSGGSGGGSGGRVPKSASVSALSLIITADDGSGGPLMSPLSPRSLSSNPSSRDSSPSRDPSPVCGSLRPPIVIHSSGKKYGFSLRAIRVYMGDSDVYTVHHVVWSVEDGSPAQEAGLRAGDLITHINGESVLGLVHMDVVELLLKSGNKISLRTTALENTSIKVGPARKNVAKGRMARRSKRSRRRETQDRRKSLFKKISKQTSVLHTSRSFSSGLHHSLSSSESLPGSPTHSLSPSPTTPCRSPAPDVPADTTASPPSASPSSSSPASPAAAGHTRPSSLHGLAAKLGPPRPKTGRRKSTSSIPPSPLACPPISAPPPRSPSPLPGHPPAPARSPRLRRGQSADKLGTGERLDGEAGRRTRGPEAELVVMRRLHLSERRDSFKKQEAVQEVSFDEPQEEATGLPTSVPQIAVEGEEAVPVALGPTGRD

Molecule	Classification [1]	Classification [2]	Classification [3]
KTMPAATYRLLTGQEQPVYL (Biotin-KTMPAATYRLLTGQEQPVYL) [MINT-3]	1 (A450 nm 0-1)	–	–
A2AC_HUMAN (Modified) (Biotin-DFRPSFKHILFRRARRGFRQ; not fully specified)	–	5 (A450 nm of 4 more than 2× repeated)	–
CC[C@H](C)[C@H](NC(=O)[C@H](Cc1ccc(O)cc1)NC(=O)[C@H](CC(C)C)NC(=O)[C@H](CCC(N)=O)NC(=O)[C@H](Cc1c[nH]cn1)NC(=O)[C@H](CO)NC(=O)[C@H](C)NC(=O)[C@H](CC(C)C)NC(=O)[C@@H](NC(=O)[C@H](CC(=O)O)NC(=O)[C@H](CCSC)NC(=O)[C@H](Cc1ccccc1)NC(=O)[C@@H]1CCCN1C(=O)[C@H](CCCNC(=N)N)NC(=O)[C@@H](NC(=O)[C@H](CC(C)C)NC(=O)[C@H](CC(N)=O)NC(=O)[C@H](CC(=O)O)NC(=O)[C@@H](NC(=O)[C@H](CO)NC(=O)CCCC[C@@H]1SC[C@@H]2NC(=O)N[C@@H]21)[C@@H](C)O)C(C)C)[C@@H](C)O)C(=O)O [presenilin-2] (Biotin-STDNLVRPFMDTLASHQLYI-OH; C-terminus assumed)	1 (A450 nm 0-1)	–	–
A2AA_HUMAN (modified) (Biotin-HDFRRAFKKILARGDRKRIV; not fully specified)	–	1 (A450 nm 0-1)	1 (A450 nm 0-1)
CSCC[C@H](NC(=O)[C@H](C)NC(=O)[C@H](CCCNC(=N)N)NC(=O)CNC(=O)[C@@H](NC(=O)[C@H](Cc1c[nH]c2ccccc12)NC(=O)[C@H](CCCNC(=N)N)NC(=O)CNC(=O)CCCC[C@@H]1SC[C@@H]2NC(=O)N[C@@H]21)[C@@H](C)O)C(=O)N[C@@H](CO)C(=O)N[C@@H](C)C(=O)N[C@@H](Cc1c[nH]c2ccccc12)C(=O)N[C@@H](CCCCN)C(=O)N1CCC[C@H]1C(=O)N[C@H](C(=O)N[C@@H](CCCNC(=N)N)C(=O)N[C@@H](CCCNC(=N)N)C(=O)N[C@@H](CCC(=O)O)C(=O)N[C@H](C(=O)N[C@@H](CCC(=O)O)C(=O)N[C@H](C(=O)O)C(C)C)[C@@H](C)O)[C@@H](C)O [HPV E6 #35 (modified)] (Biotin-GRWTGRAMSAWKPTRRETEV-OH; C-terminus assumed)	–	–	1 (A450 nm 0-1)
